Reference: the supplement of paper PMC10065799, “High-throughput profiling of sequence recognition by tyrosine kinases and SH2 domains using bacterial peptide display” (eLife, 2023)

What was measured:
c-Src SH2 = assay: SH2 binding enrichment of the phosphorylated peptide, bacterial display (enrichment ratio); higher = better substrate or ligand; peptides without Tyr show the background
SHP2-C SH2 = assay: as above
Grb2 SH2 = Grb2 SH2 (UniProt P62993); assay: as above
c-Src = assay: phosphorylation enrichment, bacterial display (enrichment ratio); higher = better substrate or ligand; peptides without Tyr show the background
Fer (mouse) = assay: as above
FGFR1 = FGFR1 (UniProt P11362); assay: as above
FGFR3 = FGFR3 (UniProt P22607); assay: as above
AncSZ = assay: as above
Hck = Hck (UniProt P08631); assay: as above
Fes = Fes (UniProt P07332); assay: as above
Jak2 = Jak2 (UniProt O60674); assay: as above
Fyn = Fyn (UniProt P06241); assay: as above
c-Abl (mouse) = assay: as above
EPHB1 = EPHB1 (UniProt P54762); assay: as above
MERTK = MERTK (UniProt Q12866); assay: as above
EPHB2 = EPHB2 (UniProt P29323); assay: as above
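Throughout, for SH2 binding enrichment of the phosphorylated peptide, bacterial display: peptide library displayed on the E. coli surface as eCPX fusions, selected cells deep-sequenced, score is each peptide's frequency after selection divided by its frequency in the input.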
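Throughout, for phosphorylation enrichment, bacterial display: 11-residue human phosphosite peptides and single-mutation variants displayed on the E. coli surface, counted by deep sequencing, each peptide's frequency after selection divided by its frequency in the unselected input library; frequency after pTyr selection over input frequency; kinase dosed for 20-30% of maximal phosphorylation in three min.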

Sequence of EPHB2 (P29323 whole entry, looked up, the tested form may be a part): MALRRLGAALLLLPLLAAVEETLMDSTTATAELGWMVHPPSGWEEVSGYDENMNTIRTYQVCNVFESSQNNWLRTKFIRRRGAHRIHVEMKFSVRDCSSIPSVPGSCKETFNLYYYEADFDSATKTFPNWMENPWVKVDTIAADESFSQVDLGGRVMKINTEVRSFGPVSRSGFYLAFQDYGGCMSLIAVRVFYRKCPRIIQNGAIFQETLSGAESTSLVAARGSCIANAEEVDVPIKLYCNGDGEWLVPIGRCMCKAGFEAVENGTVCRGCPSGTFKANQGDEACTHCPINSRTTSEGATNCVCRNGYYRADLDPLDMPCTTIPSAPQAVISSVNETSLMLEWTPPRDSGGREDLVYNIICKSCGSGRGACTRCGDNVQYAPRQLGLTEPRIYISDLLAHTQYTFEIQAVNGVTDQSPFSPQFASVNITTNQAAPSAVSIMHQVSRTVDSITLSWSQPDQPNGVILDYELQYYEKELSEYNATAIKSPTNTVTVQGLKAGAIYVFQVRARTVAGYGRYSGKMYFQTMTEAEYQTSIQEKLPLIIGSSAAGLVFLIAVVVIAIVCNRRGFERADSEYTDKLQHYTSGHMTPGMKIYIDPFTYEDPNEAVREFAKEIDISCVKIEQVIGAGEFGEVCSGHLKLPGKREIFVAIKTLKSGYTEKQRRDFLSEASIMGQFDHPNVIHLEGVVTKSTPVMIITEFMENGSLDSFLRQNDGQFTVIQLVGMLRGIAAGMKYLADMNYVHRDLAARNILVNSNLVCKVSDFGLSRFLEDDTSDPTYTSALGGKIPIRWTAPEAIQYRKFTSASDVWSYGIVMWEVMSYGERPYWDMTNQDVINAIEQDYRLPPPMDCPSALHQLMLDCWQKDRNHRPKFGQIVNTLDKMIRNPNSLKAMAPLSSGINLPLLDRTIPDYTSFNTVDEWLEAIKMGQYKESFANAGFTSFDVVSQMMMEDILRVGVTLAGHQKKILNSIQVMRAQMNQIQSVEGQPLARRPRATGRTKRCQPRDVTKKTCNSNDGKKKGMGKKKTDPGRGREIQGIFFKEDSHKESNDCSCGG
Sequence of FGFR3 (P22607 whole entry, looked up): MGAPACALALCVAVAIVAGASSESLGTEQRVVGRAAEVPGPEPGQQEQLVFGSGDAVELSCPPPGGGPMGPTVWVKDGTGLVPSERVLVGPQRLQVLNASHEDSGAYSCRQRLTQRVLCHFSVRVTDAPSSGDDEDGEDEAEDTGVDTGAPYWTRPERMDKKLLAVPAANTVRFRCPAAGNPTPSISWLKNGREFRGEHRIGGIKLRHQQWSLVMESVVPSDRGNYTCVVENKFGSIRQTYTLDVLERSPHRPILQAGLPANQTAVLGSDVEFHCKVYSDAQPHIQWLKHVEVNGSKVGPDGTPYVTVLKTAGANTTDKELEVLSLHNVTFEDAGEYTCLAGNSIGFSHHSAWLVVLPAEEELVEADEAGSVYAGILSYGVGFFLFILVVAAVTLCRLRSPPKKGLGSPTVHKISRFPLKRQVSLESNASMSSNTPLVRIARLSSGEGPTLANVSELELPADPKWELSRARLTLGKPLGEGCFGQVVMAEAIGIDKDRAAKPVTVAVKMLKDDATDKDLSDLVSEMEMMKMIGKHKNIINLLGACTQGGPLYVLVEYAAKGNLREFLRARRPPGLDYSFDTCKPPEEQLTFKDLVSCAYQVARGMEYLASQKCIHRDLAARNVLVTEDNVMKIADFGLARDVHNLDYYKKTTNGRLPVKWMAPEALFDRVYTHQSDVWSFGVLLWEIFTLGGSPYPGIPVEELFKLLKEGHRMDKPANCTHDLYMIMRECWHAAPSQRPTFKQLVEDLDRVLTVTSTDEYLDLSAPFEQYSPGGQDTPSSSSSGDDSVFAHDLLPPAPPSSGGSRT
Sequence of FGFR1 (P11362 whole entry, looked up): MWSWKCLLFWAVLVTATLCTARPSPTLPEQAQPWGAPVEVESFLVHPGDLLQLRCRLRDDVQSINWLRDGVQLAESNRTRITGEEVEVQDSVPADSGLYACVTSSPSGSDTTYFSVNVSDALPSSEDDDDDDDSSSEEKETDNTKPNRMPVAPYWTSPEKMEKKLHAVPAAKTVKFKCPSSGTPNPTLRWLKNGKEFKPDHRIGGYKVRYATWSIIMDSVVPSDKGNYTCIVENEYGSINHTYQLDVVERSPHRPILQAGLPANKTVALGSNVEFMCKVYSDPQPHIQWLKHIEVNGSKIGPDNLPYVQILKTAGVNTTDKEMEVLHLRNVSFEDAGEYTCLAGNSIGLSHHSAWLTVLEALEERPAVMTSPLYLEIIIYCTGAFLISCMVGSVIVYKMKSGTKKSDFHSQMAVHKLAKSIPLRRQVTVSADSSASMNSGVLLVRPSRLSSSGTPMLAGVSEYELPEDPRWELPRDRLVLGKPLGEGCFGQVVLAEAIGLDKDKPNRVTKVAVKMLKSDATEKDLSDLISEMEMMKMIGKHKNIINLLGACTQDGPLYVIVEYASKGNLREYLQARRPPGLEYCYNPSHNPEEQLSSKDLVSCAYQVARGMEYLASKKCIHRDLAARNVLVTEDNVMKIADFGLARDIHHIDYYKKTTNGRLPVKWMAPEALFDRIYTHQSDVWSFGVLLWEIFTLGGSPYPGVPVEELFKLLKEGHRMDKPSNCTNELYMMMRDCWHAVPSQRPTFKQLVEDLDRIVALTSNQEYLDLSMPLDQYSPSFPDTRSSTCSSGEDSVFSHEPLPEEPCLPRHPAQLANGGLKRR
Sequence of EPHB1 (P54762 whole entry, looked up): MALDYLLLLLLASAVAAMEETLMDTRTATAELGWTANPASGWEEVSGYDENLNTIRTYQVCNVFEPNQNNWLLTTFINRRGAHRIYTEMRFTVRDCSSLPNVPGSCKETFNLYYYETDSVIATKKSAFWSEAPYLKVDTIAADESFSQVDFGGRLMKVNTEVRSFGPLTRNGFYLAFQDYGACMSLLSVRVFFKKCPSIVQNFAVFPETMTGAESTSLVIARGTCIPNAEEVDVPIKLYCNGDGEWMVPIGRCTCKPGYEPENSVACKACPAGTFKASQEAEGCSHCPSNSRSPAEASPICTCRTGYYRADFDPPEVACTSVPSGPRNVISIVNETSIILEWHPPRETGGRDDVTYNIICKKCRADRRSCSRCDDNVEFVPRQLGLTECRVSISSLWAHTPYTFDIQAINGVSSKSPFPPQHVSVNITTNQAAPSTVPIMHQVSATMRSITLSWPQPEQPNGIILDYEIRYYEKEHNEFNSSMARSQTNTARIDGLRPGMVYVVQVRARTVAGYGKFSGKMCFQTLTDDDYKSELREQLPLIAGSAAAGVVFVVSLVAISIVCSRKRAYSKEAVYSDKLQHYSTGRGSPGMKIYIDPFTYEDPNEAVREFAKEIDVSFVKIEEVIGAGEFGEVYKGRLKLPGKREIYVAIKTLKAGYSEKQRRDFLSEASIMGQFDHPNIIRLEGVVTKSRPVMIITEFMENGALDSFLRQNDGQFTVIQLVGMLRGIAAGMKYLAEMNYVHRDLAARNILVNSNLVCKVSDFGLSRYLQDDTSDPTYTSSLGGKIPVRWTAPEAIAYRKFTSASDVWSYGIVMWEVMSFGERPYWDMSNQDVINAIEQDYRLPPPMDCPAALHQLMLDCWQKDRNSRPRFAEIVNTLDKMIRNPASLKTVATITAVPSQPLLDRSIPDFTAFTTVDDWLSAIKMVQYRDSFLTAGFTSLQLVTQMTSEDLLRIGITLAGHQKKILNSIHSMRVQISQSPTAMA
Sequence of Jak2 (O60674 whole entry, looked up): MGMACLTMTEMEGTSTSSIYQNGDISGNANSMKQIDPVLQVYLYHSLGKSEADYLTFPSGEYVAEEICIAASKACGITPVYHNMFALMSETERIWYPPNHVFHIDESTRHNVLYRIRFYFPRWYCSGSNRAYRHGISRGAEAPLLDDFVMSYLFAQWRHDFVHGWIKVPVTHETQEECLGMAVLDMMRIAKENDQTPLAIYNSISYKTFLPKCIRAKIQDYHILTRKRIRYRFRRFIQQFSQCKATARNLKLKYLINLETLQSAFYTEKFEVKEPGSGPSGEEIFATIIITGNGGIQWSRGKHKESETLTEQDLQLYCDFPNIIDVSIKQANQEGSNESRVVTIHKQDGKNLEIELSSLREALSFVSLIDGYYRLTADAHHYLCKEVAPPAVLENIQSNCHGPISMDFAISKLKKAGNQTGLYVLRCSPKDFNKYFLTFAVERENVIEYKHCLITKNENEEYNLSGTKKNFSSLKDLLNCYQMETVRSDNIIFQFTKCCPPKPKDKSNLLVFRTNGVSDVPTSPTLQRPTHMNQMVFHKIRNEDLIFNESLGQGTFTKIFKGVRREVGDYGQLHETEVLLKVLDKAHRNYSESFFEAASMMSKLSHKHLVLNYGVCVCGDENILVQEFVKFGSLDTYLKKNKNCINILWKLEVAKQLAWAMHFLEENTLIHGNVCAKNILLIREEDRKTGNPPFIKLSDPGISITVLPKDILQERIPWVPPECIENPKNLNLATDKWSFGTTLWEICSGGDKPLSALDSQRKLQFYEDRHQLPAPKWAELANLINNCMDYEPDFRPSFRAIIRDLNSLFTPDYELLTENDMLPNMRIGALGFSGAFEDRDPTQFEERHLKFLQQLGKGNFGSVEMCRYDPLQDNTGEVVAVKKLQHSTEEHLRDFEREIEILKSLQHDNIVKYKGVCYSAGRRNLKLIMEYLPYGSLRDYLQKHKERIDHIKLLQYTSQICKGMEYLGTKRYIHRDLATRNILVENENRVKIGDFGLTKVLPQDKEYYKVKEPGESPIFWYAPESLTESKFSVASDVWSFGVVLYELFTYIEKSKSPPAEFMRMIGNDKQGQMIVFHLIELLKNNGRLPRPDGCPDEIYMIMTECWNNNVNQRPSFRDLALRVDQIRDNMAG

Row | Sequence | SH2 binding enrichment (c-Src SH2) | SH2 binding enrichment (SHP2-C SH2) | SH2 binding enrichment (Grb2 SH2) | phosphorylation enrichment (c-Src) | phosphorylation enrichment (Fer (mouse)) | phosphorylation enrichment (FGFR1) | phosphorylation enrichment (FGFR3) | phosphorylation enrichment (AncSZ) | phosphorylation enrichment (Hck) | phosphorylation enrichment (Fes) | phosphorylation enrichment (Jak2) | phosphorylation enrichment (Fyn) | phosphorylation enrichment (c-Abl (mouse)) | phosphorylation enrichment (EPHB1) | phosphorylation enrichment (MERTK) | phosphorylation enrichment (EPHB2)
1 | NVVHEYSSELE [FGB_Y172_N170H] | 1.48 | 0.637 | 0.908 | 0.649 | 0.519 | 0.472 | 0.705 | 1.02 | 0.481 | 1.1 | 1.02 | 0.436 | 0.987 | 0.544 | 0.473 | 0.656
2 | ASPKSYPSQKH [CAP2_Y316_T311A] | 0.385 | 0.638 | 0.635 | 0.366 | 0.323 | 0.356 | 0.406 | 0.426 | 0.333 | 0.511 | 0.464 | 0.374 | 0.484 | 0.358 | 0.356 | 0.276
3 | RAIDMYLMGCF [GABRB2_Y308_K303R] | 0.332 | 0.572 | 0.886 | 1.29 | 0.799 | 0.777 | 1.19 | 1.87 | 0.888 | 1.79 | 1.83 | 0.907 | 1.58 | 0.848 | 0.601 | 0.706
4 | ATVLNYLPKCI [A2M_Y817] | 0.535 | 0.736 | 0.899 | 0.385 | 0.438 | 0.519 | 0.649 | 0.747 | 0.599 | 0.987 | 0.858 | 0.437 | 0.714 | 0.662 | 0.392 | 0.542
5 | NGSFRYVIISQ [LRP1B_Y1988] | 2.17 | 5.12 | 1.17 | 0.422 | 0.513 | 0.603 | 0.71 | 1.12 | 0.657 | 1.25 | 0.958 | 0.528 | 0.727 | 0.599 | 0.448 | 0.581
6 | AGLEEYSAMRD [HRAS_Y64_Q61L] | 0.572 | 0.693 | 0.821 | 0.484 | 0.495 | 0.52 | 0.666 | 0.952 | 0.523 | 0.997 | 0.837 | 0.45 | 0.636 | 0.568 | 0.429 | 0.585
7 | GGMTEYELVVV [KRAS_Y4_K5E] | 0.525 | 0.528 | 0.792 | 0.651 | 7.66 | 2.95 | 1.62 | 1.6 | 0.585 | 1.04 | 1 | 0.664 | 0.589 | 1.39 | 0.456 | 1.15
8 | LITTLYISFLG [KCNQ1_Y267_G269S] | 0.838 | 0.621 | 0.872 | 1.56 | 0.757 | 0.71 | 1.06 | 1.47 | 1.15 | 1.98 | 2.27 | 0.913 | 1.64 | 0.852 | 0.902 | 0.784
9 | DHAGMYGLGDR [MAPT_Y18_T17M] | 0.44 | 0.472 | 0.791 | 0.454 | 0.388 | 0.391 | 0.393 | 0.556 | 0.471 | 0.558 | 0.45 | 0.523 | 0.411 | 0.348 | 0.371 | 0.541
10 | DGQVNYEELVQ [CALM1_Y139_F142L] | 0.745 | 0.733 | 0.835 | 0.614 | 0.639 | 0.819 | 0.735 | 1.47 | 0.594 | 1.25 | 1.43 | 0.704 | 0.781 | 1.04 | 0.659 | 0.826
11 | CKSVHYDLVFL [COL22A1_Y37] | 0.986 | 0.613 | 0.775 | 0.528 | 9.46 | 0.532 | 0.866 | 1.24 | 0.632 | 1.38 | 1.19 | 0.554 | 0.93 | 0.806 | 1.56 | 0.739
12 | SSFPDYLAAVD [GLB1_Y154_D151Y_YF] | 0.509 | 2.81 | 0.816 | 0.497 | 0.66 | 0.676 | 0.761 | 1.31 | 0.576 | 1.09 | 0.925 | 0.586 | 0.703 | 0.604 | 0.422 | 0.603
13 | LKFAIYFEVRE [LAMA2_Y1258_A1261V_YF] | 0.653 | 1.11 | 0.877 | 0.831 | 0.932 | 0.556 | 1.08 | 1.65 | 0.569 | 1.72 | 2.52 | 0.414 | 1.74 | 0.652 | 0.808 | 0.483
14 | LITTPYIGFLG [KCNQ1_Y267_L266P] | 0.492 | 2.18 | 0.781 | 1.35 | 0.667 | 0.616 | 0.641 | 0.834 | 0.473 | 1.35 | 0.983 | 0.782 | 0.528 | 0.449 | 0.554 | 0.5
15 | LKLIQYHLIQQ [AKAP4_Y554_T557I] | 2.22 | 4.15 | 1.51 | 0.582 | 0.544 | 0.687 | 0.924 | 1.2 | 0.659 | 1.67 | 1.4 | 0.553 | 1.16 | 0.95 | 0.774 | 0.737
16 | IRKDLYANNVL [ACTA2_Y296] | 0.569 | 0.614 | 1.23 | 0.429 | 0.422 | 0.421 | 0.564 | 0.527 | 0.45 | 0.59 | 0.54 | 0.413 | 0.581 | 0.38 | 0.476 | 0.46
17 | APQYTYTQGGQ [FLNA_Y1763_A1764T] | 1.84 | 0.799 | 1.54 |  |  |  |  |  |  |  |  |  |  |  |  | 
18 | LPEVSYVKAID [GLRA1_Y307_K304E] | 0.437 | 0.783 | 0.862 | 0.126 |  |  | 0.1 | 0.207 | 0.203 | 0.205 | 0.44 | 0.28 | 0.132 | 0.095 | 0.07 | 

The next lines start with results.

Row | SH2 binding enrichment (c-Src SH2) | SH2 binding enrichment (SHP2-C SH2) | SH2 binding enrichment (Grb2 SH2) | Sequence | phosphorylation enrichment (c-Src) | phosphorylation enrichment (Fer (mouse)) | phosphorylation enrichment (FGFR1) | phosphorylation enrichment (FGFR3) | phosphorylation enrichment (AncSZ) | phosphorylation enrichment (Hck) | phosphorylation enrichment (Fes) | phosphorylation enrichment (Jak2) | phosphorylation enrichment (Fyn) | phosphorylation enrichment (c-Abl (mouse)) | phosphorylation enrichment (EPHB1) | phosphorylation enrichment (MERTK) | phosphorylation enrichment (EPHB2)
19 | 0.619 | 0.837 | 0.841 | ILGTFYETGSI [PAX2_Y73_R71T_YF] | 0.529 | 0.749 | 0.582 | 0.526 | 0.773 | 0.621 | 0.956 | 0.871 | 0.524 | 0.587 | 0.466 | 0.568 | 0.541
20 | 0.467 | 0.746 | 0.735 | RAIELYNDKEK [OTULIN_Y244] | 0.747 | 0.657 | 0.923 | 0.924 | 1.52 | 1.08 | 1.51 | 1.69 | 0.558 | 0.845 | 0.73 | 0.54 | 0.821
21 | 0.78 | 0.763 | 0.969 | AKGMKYVASKK [MET_Y1194_L1195V] | 0.381 | 0.322 | 0.415 | 0.356 | 0.451 | 0.425 | 0.548 | 0.5 | 0.339 | 0.451 | 0.301 | 0.349 | 0.276
22 | 0.625 | 0.632 | 0.807 | AELVRYFMEHH [PTPN11_Y80_Q79R_YF] | 0.433 | 0.427 | 0.454 | 0.471 | 0.653 | 0.46 | 0.883 | 0.621 | 0.414 | 0.493 | 0.458 | 0.421 | 0.526
23 | 0.941 | 1.01 | 0.869 | HLWRIYYDITD [MMP27_Y307] | 4.21 | 1.64 | 4.63 | 3.87 | 3.29 | 3.14 | 3.16 | 3.36 | 2.6 | 1.86 | 9.72 | 1.77 | 4.96
24 | 0.486 | 0.655 | 0.995 | PLDNLYAEPAV [PRPS1_Y146_V142L] | 2.06 | 4.92 | 0.719 | 1.09 | 2.72 | 4.65 | 1.66 | 1.83 | 2.13 | 10.6 | 9.6 | 8.88 | 12.9
25 | 0.625 | 0.845 | 0.872 | ALKWGYTVKGI [OAT_Y158_R154L] | 0.31 | 0.445 | 0.426 | 0.72 | 1.13 | 0.341 | 1.24 | 1.01 | 0.519 | 0.659 | 0.447 | 0.304 | 0.547
26 | 2.25 | 0.642 | 0.869 | FEGHSYSACTT [MMP9_Y241_R239H] | 0.59 | 0.644 | 0.533 | 0.656 | 0.95 | 0.486 | 1.1 | 1.03 | 0.512 | 1.34 | 0.617 | 0.562 | 0.524
27 | 0.45 | 0.732 | 0.871 | AKLDIYKRKVE [VWA3B_Y918_N916D] | 0.37 | 0.317 | 0.298 | 0.382 | 0.589 | 0.414 | 0.707 | 0.475 | 0.485 | 0.411 | 0.295 | 0.291 | 0.283
28 | 0.855 | 0.612 | 0.681 | SILAVYSKDNY [PANK2_Y400] | 1.11 | 0.425 | 0.451 | 0.524 | 0.925 | 0.875 | 0.664 | 0.549 | 0.756 | 0.653 | 0.478 | 0.588 | 0.486
29 | 0.665 | 1 | 0.979 | QSHKVYVQHLL [POR_Y604] | 0.618 | 0.742 | 0.867 | 0.977 | 0.919 | 0.858 | 0.971 | 0.798 | 0.908 | 0.806 | 0.444 | 0.594 | 0.572
